# In patent US20210371518A1 (University of Texas, published 2021):
# Positions count from the first letter of the chain named. Where “and” joins values, the source holds several entries; their conditions need not be identical. Equal entries are not always repeated.
# B1: h193 antibody No. 19 (h193-H3 / h193-K1) (antibody, V domains shown)
# VH: EVQLVESGGGLVQPGGSLRLSCAASGFSLSSSYWISWVRQAPGKGLEWIGSIDSGSVGITYYATWAKGRFTISRDNSKNTLYLQMNSLRAEDTAVYYCARHGDNWALDLWGQGTLVTVSS
# VL: DIQMTQSPSTLSASVGDRVTITCQASQSINSWLAWYQQKPGKAPKLLIYKASTLASGVPSRFSGSGSGTEFTLTISSLQPDDFATYYCQHGYIRGDLDNVFGGGTKVEIK
# B2: h193 antibody No. 20 (h193-H3 / h193-K2) (antibody, V domains shown)
# VH: B1 VH
# VL: B1 VL with I2L, Q3V, A43P, P59S, F83V
# B3: h193 antibody No. 23 (h193-H4 / h193-K1) (antibody, V domains shown)
# VH: B1 VH with I49V, G50S
# VL: B1 VL
# B4: h193 antibody No. 24 (h193-H4 / h193-K2) (antibody, V domains shown)
# VH: B1 VH with I49V, G50S
# VL: B1 VL with I2L, Q3V, A43P, P59S, F83V
# B5: h193 antibody No. 27 (h193-H5 / h193-K1) (antibody, V domains shown)
# VH: B1 VH with S51V
# VL: B1 VL
# B6: h193 antibody No. 28 (h193-H5 / h193-K2) (antibody, V domains shown)
# VH: B1 VH with S51V
# VL: B1 VL with I2L, Q3V, A43P, P59S, F83V
# B7: h193 antibody No. 31 (h193-H6 / h193-K1) (antibody, V domains shown)
# VH: B1 VH with W65S
# VL: B1 VL
# B8: h193 antibody No. 32 (h193-H6 / h193-K2) (antibody, V domains shown)
# VH: B1 VH with W65S
# VL: B1 VL with I2L, Q3V, A43P, P59S, F83V
# B9: h193 antibody No. 33 (h193-H6 / h193-K3) (antibody, V domains shown)
# VH: B1 VH with W65S
# VL: B1 VL with Q24R
# B10: h193 antibody No. 35 (h193-H7 / h193-K1) (antibody, V domains shown)
# VH: B1 VH with A66V
# VL: B1 VL
# B11: h193 antibody No. 36 (h193-H7 / h193-K2) (antibody, V domains shown)
# VH: B1 VH with A66V
# VL: B1 VL with I2L, Q3V, A43P, P59S, F83V
# B12: h193 antibody No. 37 (h193-H7 / h193-K3) (antibody, V domains shown)
# VH: B1 VH with A66V
# VL: B1 VL with Q24R
# Biological target: LILRA1 (human (not printed on the sheet), UniProt O75019)
# Sequence (O75019 17-461 limits assumed): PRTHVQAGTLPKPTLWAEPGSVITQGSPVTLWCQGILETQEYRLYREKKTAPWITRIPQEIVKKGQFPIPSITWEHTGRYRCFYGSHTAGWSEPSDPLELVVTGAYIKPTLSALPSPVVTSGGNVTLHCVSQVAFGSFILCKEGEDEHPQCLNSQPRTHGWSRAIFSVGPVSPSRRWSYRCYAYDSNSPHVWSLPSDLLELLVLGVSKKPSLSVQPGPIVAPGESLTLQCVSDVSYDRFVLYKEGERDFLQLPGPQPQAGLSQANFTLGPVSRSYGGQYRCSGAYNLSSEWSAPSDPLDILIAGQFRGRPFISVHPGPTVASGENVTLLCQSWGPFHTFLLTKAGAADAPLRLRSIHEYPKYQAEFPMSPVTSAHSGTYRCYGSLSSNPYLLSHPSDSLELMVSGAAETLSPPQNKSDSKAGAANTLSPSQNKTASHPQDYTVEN
# Test: LILR reporter cells on coated antibody, GFP positive (%)
# Description: (§1) FIGS. 41A-41M illustrate specific binding of h193 antibodies to LILRB4 protein. FIGS. 41A-41L illustrate the specificity of h193 antibodies determined by LILR reporter assays, in which LILR reporter cells are added to the plates coated with h193 antibodies. The binding of h193 antibodies to the ECD of the LILR member on the surface of the reporter cells induced GFP signal. FIG. 41M illustrates the specificity of an exemplary h193 antibody determined by ELISA. LILRA and LILRB recombinant proteins were coated on high absorption 96-well plates. Serial diluted (5-fold) mAb h193 were added to the coated/blocked plates and detected using goat anti-human IgG F(ab)2 conjugated HRP as secondary antibody.
row,Binder,binding result
1,B1,no binding
2,B2,no binding
3,B3,no binding
4,B4,no binding
5,B5,no binding
6,B6,no binding
7,B7,no binding
8,B8,no binding
9,B9,no binding
10,B10,no binding
11,B11,no binding
12,B12,no binding

# Biological target: LILRB3 (human (not printed on the sheet), UniProt O75022)
# Sequence (O75022 24-443 limits assumed): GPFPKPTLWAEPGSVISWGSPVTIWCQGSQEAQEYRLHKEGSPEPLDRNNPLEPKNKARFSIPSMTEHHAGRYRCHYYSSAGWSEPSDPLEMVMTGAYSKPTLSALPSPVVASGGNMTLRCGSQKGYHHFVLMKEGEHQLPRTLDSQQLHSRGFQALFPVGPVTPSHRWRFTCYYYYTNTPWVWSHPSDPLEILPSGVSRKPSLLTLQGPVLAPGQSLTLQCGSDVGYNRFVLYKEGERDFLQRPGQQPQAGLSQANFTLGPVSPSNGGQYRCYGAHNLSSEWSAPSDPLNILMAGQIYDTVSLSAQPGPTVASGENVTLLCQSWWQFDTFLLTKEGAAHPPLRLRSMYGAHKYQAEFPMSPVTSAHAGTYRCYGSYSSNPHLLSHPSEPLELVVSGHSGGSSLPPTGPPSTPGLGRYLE
# Test: as above
# Description: as §1
row,Binder,binding result
1,B1,no binding
2,B2,no binding
3,B3,no binding
4,B4,no binding
5,B5,no binding
6,B6,no binding
7,B7,no binding
8,B8,no binding
9,B9,no binding
10,B10,no binding
11,B11,no binding
12,B12,no binding

# Biological target: LILRA3 (human (not printed on the sheet), UniProt Q8N6C8)
# Sequence (Q8N6C8 24-439 limits assumed): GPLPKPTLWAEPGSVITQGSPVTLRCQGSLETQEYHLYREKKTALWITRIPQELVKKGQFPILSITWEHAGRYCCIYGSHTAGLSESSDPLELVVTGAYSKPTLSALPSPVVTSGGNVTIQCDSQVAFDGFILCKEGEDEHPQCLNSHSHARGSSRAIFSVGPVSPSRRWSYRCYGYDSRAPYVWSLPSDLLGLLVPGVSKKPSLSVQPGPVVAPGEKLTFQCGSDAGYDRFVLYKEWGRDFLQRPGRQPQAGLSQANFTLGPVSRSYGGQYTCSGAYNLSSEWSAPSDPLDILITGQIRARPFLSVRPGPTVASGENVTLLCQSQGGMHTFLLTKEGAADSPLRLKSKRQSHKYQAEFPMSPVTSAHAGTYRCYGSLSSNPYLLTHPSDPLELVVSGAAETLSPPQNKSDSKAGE
# Test: as above
# Description: as §1
row,Binder,binding result
1,B1,no binding
2,B2,no binding
3,B3,no binding
4,B4,no binding
5,B5,no binding
6,B6,no binding
7,B7,no binding
8,B8,no binding
9,B9,no binding
10,B10,no binding
11,B11,no binding
12,B12,no binding

# Biological target: LILRA5 (human (not printed on the sheet), UniProt A6NI73)
# Sequence (A6NI73 42-268 limits assumed): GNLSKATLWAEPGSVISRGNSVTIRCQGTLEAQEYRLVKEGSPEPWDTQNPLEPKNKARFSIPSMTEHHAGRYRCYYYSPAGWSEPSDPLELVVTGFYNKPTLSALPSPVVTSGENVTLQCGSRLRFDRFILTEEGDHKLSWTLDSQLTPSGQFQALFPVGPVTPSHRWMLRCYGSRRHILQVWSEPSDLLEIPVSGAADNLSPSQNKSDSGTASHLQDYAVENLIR
# Test: as above
# Description: as §1
row,Binder,binding result
1,B1,no binding
2,B2,no binding
3,B3,no binding
4,B4,no binding
5,B5,no binding
6,B6,no binding
7,B7,no binding
8,B8,no binding
9,B9,no binding
10,B10,no binding
11,B11,no binding
12,B12,no binding

# Biological target: LILRB1 (human (not printed on the sheet), UniProt Q8NHL6)
# Sequence (Q8NHL6 24-461 limits assumed): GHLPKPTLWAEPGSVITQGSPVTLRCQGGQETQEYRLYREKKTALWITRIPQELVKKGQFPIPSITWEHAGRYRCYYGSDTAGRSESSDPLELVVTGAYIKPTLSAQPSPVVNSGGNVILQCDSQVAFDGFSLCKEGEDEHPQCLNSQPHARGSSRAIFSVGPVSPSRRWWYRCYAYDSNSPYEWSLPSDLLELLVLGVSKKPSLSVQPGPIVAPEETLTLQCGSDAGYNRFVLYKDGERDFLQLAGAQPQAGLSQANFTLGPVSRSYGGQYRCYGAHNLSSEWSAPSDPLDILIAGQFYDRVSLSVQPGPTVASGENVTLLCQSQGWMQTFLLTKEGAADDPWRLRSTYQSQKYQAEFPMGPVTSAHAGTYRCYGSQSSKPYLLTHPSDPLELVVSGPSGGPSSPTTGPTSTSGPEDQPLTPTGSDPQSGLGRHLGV
# Test: as above
# Description: as §1
row,Binder,binding result
1,B1,no binding
2,B2,no binding
3,B3,no binding
4,B4,no binding
5,B5,no binding
6,B6,no binding
7,B7,no binding
8,B8,no binding
9,B9,no binding
10,B10,no binding
11,B11,no binding
12,B12,no binding

# Biological target: LILRB2 (human (not printed on the sheet), UniProt Q8N423)
# Sequence (Q8N423 22-460 limits assumed): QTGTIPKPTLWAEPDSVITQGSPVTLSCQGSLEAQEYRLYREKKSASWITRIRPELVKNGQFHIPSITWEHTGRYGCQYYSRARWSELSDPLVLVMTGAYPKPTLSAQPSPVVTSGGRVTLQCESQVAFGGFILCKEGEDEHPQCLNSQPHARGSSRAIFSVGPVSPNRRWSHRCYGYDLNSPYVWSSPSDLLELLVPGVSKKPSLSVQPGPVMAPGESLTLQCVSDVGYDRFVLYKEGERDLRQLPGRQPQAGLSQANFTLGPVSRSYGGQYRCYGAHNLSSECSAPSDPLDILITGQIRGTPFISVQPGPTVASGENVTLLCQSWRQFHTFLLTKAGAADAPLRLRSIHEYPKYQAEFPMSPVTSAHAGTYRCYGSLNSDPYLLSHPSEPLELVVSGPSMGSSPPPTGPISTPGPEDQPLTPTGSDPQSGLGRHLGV
# Test: as above
# Description: as §1
row,Binder,binding result
1,B1,no binding
2,B2,no binding
3,B3,no binding
4,B4,no binding
5,B5,no binding
6,B6,no binding
7,B7,no binding
8,B8,no binding
9,B9,no binding
10,B10,no binding
11,B11,no binding
12,B12,no binding

# Biological target: LILRA4 (human (not printed on the sheet), UniProt P59901)
# Sequence (P59901 24-446 limits assumed): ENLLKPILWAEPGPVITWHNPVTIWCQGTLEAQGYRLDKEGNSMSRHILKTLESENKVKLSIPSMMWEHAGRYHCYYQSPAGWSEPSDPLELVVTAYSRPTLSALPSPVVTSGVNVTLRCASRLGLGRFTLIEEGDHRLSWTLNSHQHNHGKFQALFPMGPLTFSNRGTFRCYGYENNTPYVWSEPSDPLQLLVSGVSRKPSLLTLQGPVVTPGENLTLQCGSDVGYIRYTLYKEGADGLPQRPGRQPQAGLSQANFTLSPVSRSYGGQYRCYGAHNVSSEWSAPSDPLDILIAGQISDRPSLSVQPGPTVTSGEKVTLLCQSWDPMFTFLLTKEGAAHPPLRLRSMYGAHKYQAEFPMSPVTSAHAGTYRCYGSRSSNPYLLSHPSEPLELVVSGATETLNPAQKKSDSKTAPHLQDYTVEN
# Test: as above
# Description: as §1
row,Binder,binding result
1,B1,no binding
2,B2,no binding
3,B3,no binding
4,B4,no binding
5,B5,no binding
6,B6,no binding
7,B7,no binding
8,B8,no binding
9,B9,no binding
10,B10,no binding
11,B11,no binding
12,B12,no binding

# Biological target: LILRA6 (human (not printed on the sheet), UniProt Q6PI73)
# Sequence (Q6PI73 24-447 limits assumed): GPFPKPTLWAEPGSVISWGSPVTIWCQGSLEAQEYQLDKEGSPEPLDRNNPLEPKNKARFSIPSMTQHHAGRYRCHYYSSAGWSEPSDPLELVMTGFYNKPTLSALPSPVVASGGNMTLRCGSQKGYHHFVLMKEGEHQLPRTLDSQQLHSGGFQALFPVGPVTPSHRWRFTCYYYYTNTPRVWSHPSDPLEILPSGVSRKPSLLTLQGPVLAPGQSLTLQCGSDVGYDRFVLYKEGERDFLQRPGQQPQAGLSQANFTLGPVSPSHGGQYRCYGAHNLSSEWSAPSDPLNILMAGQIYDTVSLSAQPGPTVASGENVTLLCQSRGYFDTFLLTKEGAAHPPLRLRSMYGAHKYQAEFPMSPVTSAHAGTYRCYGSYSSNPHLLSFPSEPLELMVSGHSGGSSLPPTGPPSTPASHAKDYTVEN
# Test: as above
# Description: as §1
row,Binder,binding result
1,B1,no binding
2,B2,no binding
3,B3,no binding
4,B4,no binding
5,B5,no binding
6,B6,no binding
7,B7,no binding
8,B8,no binding
9,B9,no binding
10,B10,no binding
11,B11,no binding
12,B12,no binding

# Biological target: LILRB5 (human (not printed on the sheet), UniProt O75023)
# Sequence (O75023 24-458 limits assumed): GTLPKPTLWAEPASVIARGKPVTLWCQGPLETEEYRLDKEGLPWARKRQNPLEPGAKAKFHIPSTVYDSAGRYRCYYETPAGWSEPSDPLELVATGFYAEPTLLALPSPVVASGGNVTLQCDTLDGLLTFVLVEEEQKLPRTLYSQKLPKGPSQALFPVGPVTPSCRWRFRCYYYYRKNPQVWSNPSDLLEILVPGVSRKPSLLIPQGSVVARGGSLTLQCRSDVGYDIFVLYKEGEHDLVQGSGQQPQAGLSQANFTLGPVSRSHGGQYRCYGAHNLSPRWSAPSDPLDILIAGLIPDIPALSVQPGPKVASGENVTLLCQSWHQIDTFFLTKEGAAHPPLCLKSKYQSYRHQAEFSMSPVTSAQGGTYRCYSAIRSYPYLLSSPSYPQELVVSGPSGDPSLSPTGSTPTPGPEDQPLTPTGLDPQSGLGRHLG
# Test: as above
# Description: as §1
row,Binder,binding result
1,B1,no binding
2,B2,no binding
3,B3,no binding
4,B4,no binding
5,B5,no binding
6,B6,no binding
7,B7,no binding
8,B8,no binding
9,B9,no binding
10,B10,no binding
11,B11,no binding
12,B12,no binding

# Biological target: LILRA2 (human (not printed on the sheet), UniProt Q8N149)
# Sequence (Q8N149 24-449 limits assumed): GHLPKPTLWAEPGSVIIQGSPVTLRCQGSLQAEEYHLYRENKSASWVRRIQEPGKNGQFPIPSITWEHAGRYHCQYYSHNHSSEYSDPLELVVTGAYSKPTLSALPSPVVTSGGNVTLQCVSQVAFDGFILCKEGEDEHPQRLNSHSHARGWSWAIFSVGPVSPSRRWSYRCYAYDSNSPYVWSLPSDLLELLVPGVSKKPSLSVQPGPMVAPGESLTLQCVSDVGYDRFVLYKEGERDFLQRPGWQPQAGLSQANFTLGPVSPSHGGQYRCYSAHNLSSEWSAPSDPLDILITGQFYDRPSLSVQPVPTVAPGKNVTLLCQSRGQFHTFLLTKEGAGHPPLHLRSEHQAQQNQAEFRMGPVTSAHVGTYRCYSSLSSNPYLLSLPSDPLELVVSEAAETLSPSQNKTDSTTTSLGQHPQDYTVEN
# Test: as above
# Description: as §1
row,Binder,binding result
1,B1,no binding
2,B2,no binding
3,B3,no binding
4,B4,no binding
5,B5,no binding
6,B6,no binding
7,B7,no binding
8,B8,no binding
9,B9,no binding
10,B10,no binding
11,B11,no binding
12,B12,no binding

# Biological target: T1, human LILRB4 extracellular domain (ECD) recombinant protein (human, UniProt Q8NHJ6 22-259)
# T1 construct: extracellular domain; also called LILRB4 ECD; LILRB4-ECD
# Test: Octet
Binder,Kd,koff,kon
B1,2.03 nM,0.000294 s⁻¹,145000 M⁻¹ s⁻¹
B2,1.67 nM,0.00025 s⁻¹,150000 M⁻¹ s⁻¹
B3,5.83 nM,0.000731 s⁻¹,125000 M⁻¹ s⁻¹
B4,4.41 nM,0.000595 s⁻¹,135000 M⁻¹ s⁻¹
B7,2.61 nM,0.000376 s⁻¹,144000 M⁻¹ s⁻¹
B8,2.38 nM,0.000362 s⁻¹,152000 M⁻¹ s⁻¹
B9,2.33 nM,0.000345 s⁻¹,148000 M⁻¹ s⁻¹
B10,1.05 nM,0.000148 s⁻¹,141000 M⁻¹ s⁻¹
B11,1.01 nM,0.000144 s⁻¹,143000 M⁻¹ s⁻¹
B12,0.984 nM,0.00014 s⁻¹,143000 M⁻¹ s⁻¹

# Biological target: T1, human LILRB4 extracellular domain (ECD) …
# Test: ELISA
row,Binder,EC50
1,B1,0.294 µg/mL and 1.96 nM
2,B2,0.272 µg/mL and 1.81 nM
3,B3,0.461 µg/mL and 3.07 nM
4,B4,0.467 µg/mL and 3.11 nM
5,B5,> 6 nM
6,B7,0.314 µg/mL and 2.09 nM
7,B8,0.262 µg/mL and 1.74 nM
8,B9,0.32 µg/mL and 2.13 nM
9,B10,0.162 µg/mL and 1.08 nM
10,B11,0.145 µg/mL and 0.96 nM
11,B12,0.163 µg/mL and 1.08 nM
